This is an account of results in patent US11857697B2, “Compositions and methods for obtaining 3-dimensional lung-like epithelium and related uses thereof” (THE REGENTS OF THE UNIVERSITY OF MICHIGAN, priority 2017, dated 2024).

The experiment deals with E13.5 mouse distal epithelial lung buds. Description: Isolated E13.5 mouse distal lung bud culture in Matrigel droplet: growth/expansion. The experiment is classed as cell-based. Here is the method: Isolated mouse buds were cultured in 4-6 μl droplets of matrigel, covered with media, and kept at 37 degrees Celsius with 5% Carbon Dioxide. Isolated human fetal lung buds were cultured in 25-50 μl droplets of matrigel, covered with media, and kept at 37 degrees Celsius with 5% Carbon Dioxide.
Mouse buds were dissected from E13.5 embryos. For experiments using Sox9CreER; Rosa^Tomato/Tomato mice, 50 ug/g of tamoxifen was dissolved in corn oil and given by oral gavage on E12.5, 24 hours prior to dissection. Briefly, in sterile environment, whole lungs were placed in 100% dispase (Corning Cat#354235) on ice for 30 minutes. Lungs were then transferred using a 25 uL wiretrol tool (Drummond Scientific Cat#S5-000-2050) to 100% FBS (Corning Cat#35-010-CV) on ice for 15 minutes, and then transferred to a solution of Dulbecco's Modified Eagle Medium: Nutrient Mixture F12 (DMEM/F12, ThermoFisher SKU#12634-010) with 10% FBS and 1× Pennicillin-Streptomycin (ThermoFisher Cat#15140122) on ice. To dissect buds, a single lung or lung lobe was transferred by wiretrol within a droplet of media to a 100 mm sterile petri dish. Under a dissecting microscope, the mesenchyme was carefully removed and epithelial bud tips were torn away from the bronchial tree using tungsten needles (Point Technologies, Inc.). Care was taken to remove the trachea and any connective tissue from dissected lungs. Isolated bud tips were picked up using a p20 pipette and added to an eppendorf tube with cold Matrigel (Corning Ref#354248) on ice. The buds were picked up in a p20 pipette with 4-6 uL of Matrigel and plated on a 24-well tissue culture well (ThermoFisher Cat#142475). The plate was moved to a tissue culture incubator and incubated for 5 minutes at 37 degrees Celsius and 5% CO2 to allow the Matrigel droplet to solidify. 500 uL of media was then added to the dish in a laminar flow hood. Media was changed every 2-3 days.
All mouse bud, human fetal bud, and hPSC-derived human lung organoids were grown in low-serum basal media (basal media) with added growth factors. Basal media consisted of Dulbecco's Modified Eagle Medium: Nutrient Mixture F12 (DMEM/F12, ThermoFisher SKU#12634-010) supplemented with 1× N2 supplement (ThermoFisher Catalog#17502048) and […] B27 supplement (ThermoFisher Catalog#17504044), along with 2 mM Glutamax (ThermoFisher Catalog#35050061), 1× Pennicillin-Streptomycin (ThermoFisher Cat#15140122) and 0.05% Bovine Serum Albumin (BSA; Sigma product# A9647). BSA was weighed and dissolved in DMEM F/12 media before being passed through a SteriFlip 0.22 uM filter (Millipore Item# EW-29969-24) and being added to basal media. Media was stored at 4 degrees Celsius for up to 1 month. On the day of use, basal media was aliquoted and 50 ug/mL Ascorbic acid and 0.4 uM Monothioglycerol was added. […]

B1: Recombinant Human Fibroblast Growth Factor 7 (protein, UniProt P21781 32-194, looked up)
Fibroblast growth factor 7: CNDMTPEQMATNVNCSSPERHTRSYDYMEGGDIRVRRLFCRTQWYLRIDKRGKVKGTQEMKNNYNIMEIRTVAVGIVAIKGVESEFYLAMNKEGKLYAKKECNEDCNFKELILENHYNTYASAKWTHNGGEMFVALNQKGIPVRGKKTKKEQKTAHFLPMAIT
notes: Recombinant human growth factor from R&D systems, used at 10 ng/mL unless otherwise noted
With B1, the Bud growth result is reported as “very modest growth” (FGF7 1 ng/mL, 3 and 5 days in vitro); “robust growth” (FGF7, all other conditions above 1 ng/mL, 5 days in vitro). The “Growth, expansion and survival of isolated buds” value (individual growth factor in basal media, FGF7 10 ng/mL, up to two weeks) is recorded as “promoted growth, expansion a survival of isolated buds for up to two weeks”.
